Experimental data reported in PMC10575594.

Columns and labels:
[1] = target: human 40S small ribosomal subunit (human) (UniProt P23396); experiment: cryo-EM structure
[2] = target: Cy3-labeled human 40S subunit (human) (UniProt P62841); experiment: FRET or BRET

In the case of “Bat-Hp-CoV Nsp1 wild type (natural protein)”, the fraction of 40S complexes with density for the Nsp1 linker and NTD [1] is reported as 15%.
With “Cy5-labeled Bat-Hp-CoV Nsp1 (natural protein)” the fraction of tethered 40S complexes that yielded FRET [2] was 10 to 20%, the koff [2] was < 0.01 s⁻¹ and the lifetime of the FRET signal [2] was > 100 s.
